Source: PMC6787021

Experiments:
[1] = target: TbMscL A85C, spin-labeled with MTSSL (Mycobacterium tuberculosis) (UniProt P9WJN5); assay: SEC
[2] = target: TbMscL E102C, spin-labeled with MTSSL (Mycobacterium tuberculosis) (UniProt P9WJN5); assay: SEC
[3] = target: TbMscL E102C, spin-labeled with MTSSL (Mycobacterium tuberculosis) (UniProt P9WJN5); assay: SEC; samples thawed after PELDOR measurements and run over SEC
[4] = target: TbMscL F5C, spin-labeled with MTSSL (Mycobacterium tuberculosis) (UniProt P9WJN5); assay: SEC
[5] = target: TbMscL F34C, spin-labeled with MTSSL (Mycobacterium tuberculosis) (UniProt P9WJN5); assay: SEC
[6] = target: TbMscL F79C, spin-labeled with MTSSL (Mycobacterium tuberculosis) (UniProt P9WJN5); assay: SEC
[7] = target: TbMscL F84C, spin-labeled with MTSSL (Mycobacterium tuberculosis) (UniProt P9WJN5); assay: SEC
[8] = target: TbMscL F88C, spin-labeled with MTSSL (Mycobacterium tuberculosis) (UniProt P9WJN5); assay: SEC
[9] = target: TbMscL I23C, spin-labeled with MTSSL (Mycobacterium tuberculosis) (UniProt P9WJN5); assay: SEC
[10] = target: TbMscL K99C, spin-labeled with MTSSL (Mycobacterium tuberculosis) (UniProt P9WJN5); assay: SEC
[11] = target: TbMscL K100C, spin-labeled with MTSSL (Mycobacterium tuberculosis) (UniProt P9WJN5); assay: SEC
[12] = target: TbMscL K100R1-F88W (Mycobacterium tuberculosis) (UniProt P9WJN5); assay: SEC
[13] = target: TbMscL K100R1-L89W (Mycobacterium tuberculosis) (UniProt P9WJN5); assay: SEC
[14] = target: TbMscL L2C, spin-labeled with MTSSL (Mycobacterium tuberculosis) (UniProt P9WJN5); assay: SEC
[15] = target: TbMscL L42C, spin-labeled with MTSSL (Mycobacterium tuberculosis) (UniProt P9WJN5); assay: SEC
[16] = target: TbMscL L72C, spin-labeled with MTSSL (Mycobacterium tuberculosis) (UniProt P9WJN5); assay: SEC
[17] = target: TbMscL L72R1-L89W (Mycobacterium tuberculosis) (UniProt P9WJN5); assay: SEC
[18] = target: TbMscL L72R1-L89W (Mycobacterium tuberculosis) (UniProt P9WJN5); assay: SEC; samples thawed after PELDOR measurements and run over SEC
[19] = target: TbMscL L73C, spin-labeled with MTSSL (Mycobacterium tuberculosis) (UniProt P9WJN5); assay: SEC
[20] = target: TbMscL L73R1-L89W (Mycobacterium tuberculosis) (UniProt P9WJN5); assay: SEC
[21] = target: TbMscL L89C, spin-labeled with MTSSL (Mycobacterium tuberculosis) (UniProt P9WJN5); assay: SEC
[22] = target: TbMscL N70C, spin-labeled with MTSSL (Mycobacterium tuberculosis) (UniProt P9WJN5); assay: SEC
[23] = target: TbMscL N70R1-L89W (Mycobacterium tuberculosis) (UniProt P9WJN5); assay: SEC
[24] = target: TbMscL R98C, spin-labeled with MTSSL (Mycobacterium tuberculosis) (UniProt P9WJN5); assay: SEC
[25] = target: TbMscL V48C, spin-labeled with MTSSL (Mycobacterium tuberculosis) (UniProt P9WJN5); assay: SEC
[26] = target: TbMscL V112C, spin-labeled with MTSSL (Mycobacterium tuberculosis) (UniProt P9WJN5); assay: SEC
[27] = target: TbMscL Y87C, spin-labeled with MTSSL (Mycobacterium tuberculosis) (UniProt P9WJN5); assay: SEC

Substance: TbMscL A85C, spin-labeled with MTSSL (from UniProt P9WJN5 1-151) (natural protein)
- stoichiometry N [1]: 5

Substance: TbMscL E102C, spin-labeled with MTSSL (from UniProt P9WJN5 1-151) (natural protein)
- stoichiometry N [2]: 5
- stoichiometry N [3]: 5

Substance: TbMscL F5C, spin-labeled with MTSSL (from UniProt P9WJN5 1-151) (natural protein)
- stoichiometry N [4]: 5

Substance: TbMscL F34C, spin-labeled with MTSSL (from UniProt P9WJN5 1-151) (natural protein)
- stoichiometry N [5]: 5

Substance: TbMscL F79C, spin-labeled with MTSSL (from UniProt P9WJN5 1-151) (natural protein)
- stoichiometry N [6]: 5

Substance: TbMscL F84C, spin-labeled with MTSSL (from UniProt P9WJN5 1-151) (natural protein)
- stoichiometry N [7]: 5

Substance: TbMscL F88C, spin-labeled with MTSSL (from UniProt P9WJN5 1-151) (natural protein)
- stoichiometry N [8]: 5

Substance: TbMscL I23C, spin-labeled with MTSSL (from UniProt P9WJN5 1-151) (natural protein)
- stoichiometry N [9]: 5

Substance: TbMscL K99C, spin-labeled with MTSSL (from UniProt P9WJN5 1-151) (natural protein)
- stoichiometry N [10]: 5

Substance: TbMscL K100C, spin-labeled with MTSSL (from UniProt P9WJN5 1-151) (natural protein)
- stoichiometry N [11]: 5

Substance: TbMscL K100R1-F88W (from UniProt P9WJN5 1-151) (natural protein)
- stoichiometry N [12]: 5

Substance: TbMscL K100R1-L89W (from UniProt P9WJN5 1-151) (natural protein)
- stoichiometry N [13]: 5

Substance: TbMscL L2C, spin-labeled with MTSSL (from UniProt P9WJN5 1-151) (natural protein)
- stoichiometry N [14]: 5

Substance: TbMscL L42C, spin-labeled with MTSSL (from UniProt P9WJN5 1-151) (natural protein)
- stoichiometry N [15]: 5

Substance: TbMscL L72C, spin-labeled with MTSSL (from UniProt P9WJN5 1-151) (natural protein)
- stoichiometry N [16]: 5

Substance: TbMscL L72R1-L89W (from UniProt P9WJN5 1-151) (natural protein)
- stoichiometry N [17]: 5
- stoichiometry N [18]: 5

Substance: TbMscL L73C, spin-labeled with MTSSL (from UniProt P9WJN5 1-151) (natural protein)
- stoichiometry N [19]: 5

Substance: TbMscL L73R1-L89W (from UniProt P9WJN5 1-151) (natural protein)
- stoichiometry N [20]: 5

Substance: TbMscL L89C, spin-labeled with MTSSL (from UniProt P9WJN5 1-151) (natural protein)
- stoichiometry N [21]: 5

Substance: TbMscL N70C, spin-labeled with MTSSL (from UniProt P9WJN5 1-151) (natural protein)
- stoichiometry N [22]: 5

Substance: TbMscL N70R1-L89W (from UniProt P9WJN5 1-151) (natural protein)
- stoichiometry N [23]: 5

Substance: TbMscL R98C, spin-labeled with MTSSL (from UniProt P9WJN5 1-151) (natural protein)
- stoichiometry N [24]: 5

Substance: TbMscL V48C, spin-labeled with MTSSL (from UniProt P9WJN5 1-151) (natural protein)
- stoichiometry N [25]: 5

Substance: TbMscL V112C, spin-labeled with MTSSL (from UniProt P9WJN5 1-151) (natural protein)
- stoichiometry N [26]: 5

Substance: TbMscL Y87C, spin-labeled with MTSSL (from UniProt P9WJN5 1-151) (natural protein)
- stoichiometry N [27]: 5
